Where “and” joins values, the source holds several entries; their conditions need not be identical. Identical values can stand only once.
What was measured:
[1] = test system: transplanted liver cancer H22; test: Continuous vs intermittent administration, transplanted liver cancer H22 in mice (Example 4); type: in vivo, BALB/c mice; settings: continuous administration: 1 μg s.c. once every 48 hours, 21 times, Day 40 after tumor inoculation
[2] = Pharmacokinetic study of single subcutaneous injection in healthy BALB/c mice (double-antibody sandwich ELISA)
Method: 6-8 weeks old, SPF grade BALB/c mice (N=60, with fifty-fifty of male and female mice) were injected with a single injection of 1 μg/mouse PEG-mIFN-α4 subcutaneously on the back of the neck. Plasma samples were collected before the injection (0 h) and after the injection at 15 h, 24 h, 36 h, 48 h, 72 h, 96 h, 120 h, 168 h, 216 h, 264 h, 312 h, to determine the blood concentration. Phoenix WinNonlin 6.4 software was used to calculate the pharmacokinetic parameters.

[3] = test system: transplanted liver cancer H22; test: Interferon combined with gemcitabine, transplanted liver cancer H22 in mice (Example 5); type: in vivo, BALB/c mice; settings: 108 days observation
Method: (§1) In this example, a comparative study on the efficacy of PEG-mIFN-α4 intermittent administration (once every 48 hours for three consecutive times, then drug withdrawal for 144 hours; for 8 rounds), PEG-mIFN-α4 continuous administration (once every 48 hours for 42 consecutive times), PEG-mIFN-α4 in combination with gemcitabine (PEG-mIFN-α4: once every 48 hours for three consecutive times, then drug withdrawal for 240 hours, 6 rounds; gemcitabine: once a week) on H22 transplanted liver cancer in mice was performed.
(§2) On the day when the tumor was inoculated, they were randomly divided into PEG-mIFN-α4 continuous administration group (N=24, female 12, male 12), PEG-mIFN-α4 intermittent administration group (N=24, female 12, male 12), the normal saline control group (N=24, female 12, male 12), the gemcitabine only group (N=24, female 12, male 12), and PEG-mIFN-α4 combined with gemcitabine group (N=24, female 12, male 12).
Gemcitabine was injected intraperitoneally, 60 mg/kg.
For the PEG-mIFN-α4 intermittent administration group, PEG-mIFN-α4 was administered once every 48 hours for three consecutive times, then drug withdrawal for 144 hours; for 8 rounds. For the PEG-mIFN-α4 continuous administration group, PEG-mIFN-α4 was administered once every 48 hours. For the PEG-mIFN-α4 combined with gemcitabine group, PEG-mIFN-α4 was administered once every 48 hours for three consecutive times, then drug withdrawal for 240 hours; for 6 rounds; and gemcitabine was administered once a week. For the gemcitabine only group, gemcitabine was administered once a week. For the saline control group, equal volume of saline was administered.
(§3) Survival analysis was performed for all groups to compare the differences between groups.

[4] = test system: transplanted colorectal cancer CT26; test: Interferon combined with gemcitabine, transplanted colorectal cancer CT26 in mice (Example 7); type: in vivo, BALB/c mice; settings: 110 days observation
Method: as §1, with “for 11” for “for 8”, “for 55” for “for 42”, “hours, 8” for “hours, 6”, “on” for “on H22”, “transplanted colorectal” for “transplanted liver”, “cancer CT26” for “cancer”
The anticancer agent is Gemcitabine (Jiangsu HAOSEN Pharmaceutical).
as §2
Gemcitabine was injected intraperitoneally, 60 mg/kg. […] For the PEG-mIFN-α4 intermittent administration group, PEG-mIFN-α4 was administered once every 48 hours for three consecutive times, then drug withdrawal for 144 hours; for 11 rounds. For the PEG-mIFN-α4 continuous administration group, PEG-mIFN-α4 was administered once every 48 hours. For the PEG-mIFN-α4 combined with gemcitabine group, PEG-mIFN-α4 was administered once every 48 hours for three consecutive times, then drug withdrawal for 240 hours; for 8 rounds; and gemcitabine was administered once a week. For the gemcitabine only group, gemcitabine was administered once a week. For the saline control group, equal volume of saline was administered.
as §3

[5] = test system: transplanted melanoma B16; test: Interferon combined with gemcitabine, transplanted melanoma B16 in mice (Example 8); type: in vivo, C57BL/6N mice
Method: In this example, a comparative study on the efficacy of PEG-mIFN-α4 intermittent administration (once every 48 hours for 3 consecutive times, then drug withdrawal for 240 hours; for 4 rounds), PEG-mIFN-α4 continuous administration (once every 48 hours for 24 consecutive times), PEG-mIFN-α4 in combination with gemcitabine (PEG-mIFN-α4: once every 48 hours for 3 consecutive times, then drug withdrawal for 240 hours, 4 rounds; gemcitabine: once a week) on transplanted melanoma B16 in mice was performed.
as §2, with “(N=28,” for “(N=24,”, “14,” for “12,”, “14),” for “12),”, “14).” for “12).”
For the PEG-mIFN-α4 intermittent administration group, PEG-mIFN-α4 was administered once every 48 hours for 3 consecutive times, then drug withdrawal for 240 hours; for 4 rounds. For the PEG-mIFN-α4 continuous administration group, PEG-mIFN-α4 was administered once every 48 hours. For the PEG-mIFN-α4 combined with gemcitabine group, PEG-mIFN-α4 was administered once every 48 hours for 3 consecutive times, then drug withdrawal for 240 hours; for 4 rounds; and gemcitabine was administered once a week. For the gemcitabine only group, gemcitabine was administered once a week. For the saline control group, equal volume of saline was administered. Gemcitabine was injected intraperitoneally, 60 mg/kg.
SAS9.4 software was used for comparing the difference in mortality, and the statistical tests were all two-sided tests.

[6] = test system: mouse fibroblast/encephalomyocarditis virus (L929/EMCV); test: Specific activity by mouse fibroblast/encephalomyocarditis virus (L929/EMCV) cytopathic inhibition method; type: cell-based; settings: stock solution; commercial mIFN-α4 (R&D) as the standard
Method: (§4) The bacterial endotoxin content of the deglycosylated mIFN-α4 stock solution was determined by the Limulus reagent method as lower than 60 EU/mg. specific activity was determined as 5.4×10^8 U/mg by using the commercial mIFN-α4 (R&D, catalog number 12115-1) as the standard, and by using the mouse fibroblast/encephalomyocarditis virus (L929/EMCV) cytopathic inhibition method.
as §4, with “PEG-mIFN-α4” for “deglycosylated mIFN-α4”, “15” for “60”, “Specific” for “specific”, “6.1×10^6” for “5.4×10^8”

B1: PEG-mIFN-α4: deglycosylated recombinant mouse interferon α4 modified with 40 kD Y-type polyethylene glycol (YPEG-NHS); SEQ ID NO: 6 (protein)
chain: CDLPHTYNLGNKRALTVLEEMRRLPPLSCLKDRKDFGFPLEKVDNQQIQKAQAILVLRDLTQQILNLFTSKDLSATWNATLLDSFCNDLHQQLNDLKACVMQEPPLTQEDSLLAVRTYFHRITVYLRKKKHSLCAWEVIRAEVWRALSSSTNLLARLSEEKE
modifications: 40 kD Y-type PEG; deglycosylated; amino acid sequence of peginterferon murine 4
With B1 the “Median survival period (Time after tumor inoculation, days)” value [1] was 38 days and 38.0 days, the Individual blood concentration ([2]; collected at 96 h, individual mice 1-5, single s.c. 1 μg/mouse) was 87.5 ng/mL and the “Cl_F—obs” value ([2]; mouse, in vivo, sc) was 0.07 mL/h. The T1/2 ([2]; mouse, in vivo, sc) was 28.3 h, the Tmax ([2]; mouse, in vivo, sc) was 24 h and the “Vz_F—obs” value ([2]; mouse, in vivo, sc) was 2.91 mL. The “Mean survival period (days post tumor inoculation)” value (from here on “Mean survival period”) ([3]; continuous administration: 1 μg/mouse s.c. once every 48 hours, 42 times) was 37.0 days, the “Mean survival period” value ([3]; intermittent administration: 1 μg/mouse s.c. every 48 h x3, withdrawal 144 h, 8 rounds) was 64.0 days and the “Mean survival period” value ([4]; continuous administration: once every 48 hours, 55 times) was 53.5 days. The “Mean survival period” value ([4]; intermittent administration: 1 μg/mouse every 48 h x3, withdrawal 144 h, 11 rounds) was 89.0 days, the Mortality ([5]; continuous administration (once every 48 hours), 46 days after tumor inoculation) was 100% and the Mortality ([5]; continuous administration (once every 48 hours, 24 times), Table 7, day not printed for this cell (footnotes: Day 46 / Day 48)) was 100%. The Mortality ([5]; intermittent administration (every 48 h x3, withdrawal 240 h, 4 rounds), 46 days after tumor inoculation) was 39.3%, the Mortality ([5]; intermittent administration (every 48 h x3, withdrawal 240 h, 4 rounds), 48 days after tumor inoculation) was 46.4% and the Specific activity [6] was 6.1×10^6 U/mg.
